Experimental data published in patent US8598312B2, “Inhibitors of antigen presentation by MHC class II molecules” (Provid Pharmaceuticals, Inc., priority 2003, dated 2013).
Where a SMILES comes first, the peptide text is derived from it. Where no end group is shown, it is not given here. [ ]: non-standard residue; d: D form. Ala(indol-4-yl) = N[C@@H](Cc1cccc2[nH]ccc12)C(=O)O; Gly(cPent) = N[C@H](C(=O)O)C1CCCC1; Tic = O=C(O)[C@@H]1Cc2ccccc2CN1; Chg = N[C@H](C(=O)O)C1CCCCC1; Pip = O=C(O)[C@@H]1CCCCN1; Idg = not defined here

How the values were obtained:
DRB1*1501 molecules = DRB1*1501 molecules (Homo sapiens, UniProt P01903+P01911); details: DR2 haplotype; cited from earlier work
DRB5*0101 molecules = DRB5*0101 molecules (Homo sapiens, UniProt P01903+Q30154); details: DR2 haplotype; cited from earlier work
T cell proliferation = details: cited from earlier work
[1] = in vivo; cited from earlier work
[2] = biological target: MHC class II HLA-DR2 (DRA*0101/DRB1*1501) (human); experiment: competition binding assay, purified HLA-DR, biotinylated reference peptide SEQ ID NO 107 as competitor, L243 capture
DR13 (HLA-DR molecules) = experiment: HLA II binding assay, DR13; set-up: species or system human; details: read-out: Inhibition of peptide binding IC50 DR13
DR2a = biological target: T1, DR2a (human, UniProt P01903 26-216, limits assumed); experiment: competition binding assay, purified HLA-DR, biotinylated reference peptide (not named), L243 capture
T1 construct: mature

[3] = biological target: T2, MHC class II HLA-DR2 (DRA*0101/DRB1*1501) (human, UniProt P01903 26-254; P01911 30-266, limits assumed); experiment: competition binding assay, purified HLA-DR, biotinylated reference peptide SEQ ID NO 107 as competitor, L243 capture
T2 construct: mature; Detergent-solubilised native molecule purified from cells; also called DR2b

IC50 (DR2a) [nM]	IC50 [3] [nM]	Molecule	also measured
630	25	Ac-[Gly(cPent)]RFFKNI (not fully specified; printed as Ac(Cpg)RFFKNI, also called Entry 25) [Ac(Cpg)RFFKNI]	–
685	3	Ac-V[Chg]RFFK (not fully specified; printed as AcV(Chg)RFFK, also called Entry 85) [AcV(Chg)RFFK]	–
17	90	Ac-[Idg]RFFKNI (not fully specified; printed as Ac(Idg)RFFKNI; reading uncertain, also called Entry 64) [Ac(Idg)RFFKNI]	–
–	450	Ac-VHFFKNI (also called Entry 2) [AcVHFFKNI]	–

Further lines, the molecule ahead of its results:

Molecule	IC50 (DR2a) [nM]	IC50 [3] [nM]	also measured
MBP (84-102): immunodominant myelin basic protein (84-102) peptide (DPGSRPHLIRLFSRDAPGR; Myelin basic protein; UniProt P02686 84-102, looked up, fragment)	–	–	binding affinity to DRB1*1501 molecules (DRB1*1501 molecules): high affinity; binding affinity to DRB5*0101 molecules (DRB5*0101 molecules): high affinity
a(Cha)AAAKTAAAAa-NH2	–	–	suppression of T cell proliferation in response to protein antigens (T cell proliferation): did not supress T cell proliferation; activity in animal models of autoimmune disease [1]: did not show activity
Ac(Cpg)R(Tic)F(hPro) (peptide)	–	–	IC50 [2]: 75 nM
CC(=O)N[C@H](C(=O)N[C@@H](CCCNC(=N)N)C(=O)N1Cc2ccccc2C[C@H]1C(=O)N[C@@H](Cc1ccccc1)C(=O)N1CCCC[C@H]1C(N)=O)C1CCCC1 [Ac(Cpg)R(Tic)F(hPro), Ac(Cpg)R(Tic)F(homo Pro)] (Ac-[Gly(cPent)]R[Tic]F[Pip]-NH2; N-terminus and C-terminus assumed)	–	–	IC50 (DR13 (HLA-DR molecules)): > 100000 nM
Ac-[Chg]RF[Ala(indol-4-yl)]KNI (not fully specified; printed as Ac(Chg)RF(4′-IndolylAla)KNI, also called Entry 79) [Ac(Chg)RF(4′-IndolylAla)KNI]	3580	6	–
